Reference: the supplement of paper PMC12764529
± gives the half width of the 95% confidence interval.

Assays:
[1] = folding stability dG unfold from trypsin proteolysis; higher = more stable
Outline: (§1)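 Digests were run with trypsin and chymotrypsin at 11 concentrations in threefold dilutions, plus a no-protease condition, on designed mini-proteins in a PA-tagged cDNA display construct. The mini-proteins were under 80 residues, had no cysteine, and were kept only when AlphaFold2 dimer inter-PAE was above 15. After sequencing, Bayesian fitting of the counts gave K50, from which unfolding free energy was derived against a sequence-predicted unfolded-state K50 and a shared folded-state K50, per protease or combined.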

[2] = folding stability dG unfold from chymotrypsin proteolysis; higher = more stable
Outline: as §1

[3] = folding stability dG unfold (combined trypsin and chymotrypsin); higher = more stable
Outline: as §1

Row | Sequence | folding stability dG unfold [1] | folding stability dG unfold [2] | folding stability dG unfold [3]
1 | SAGMKIEEKDGYLVITFKTKEEAEEAAKKLKELFPDAEIVEIKVEKDENGNETVTIVIKLKNLSPEALKSAG [r5_857_TrROS_Hall] | 1.53 ± 0.077 kcal/mol | 2.04 ± 0.12 kcal/mol | 1.85 ± 0.23 kcal/mol
2 | SAGMKIEIEIVKVEVKEVNGKKVIKVEIKVKVSAEELGLSEEELKEKLEEEVEELARELAEKLNVEVVPSAG [r5_333_TrROS_Hall] | 2.88 ± 0.36 kcal/mol | 1.36 ± 0.1 kcal/mol | 2.21 ± 0.51 kcal/mol
3 | SAGMKIENAEITEIKVTVNEDGTVTVEMTVRLKNGYVVKVTMTFKNGKLEIKPEKVEVYKVKLPEEELSAGG [r19_84_TrROS_Hall] | 1.68 ± 0.098 kcal/mol | 2.28 ± 0.22 kcal/mol | 2.09 ± 0.41 kcal/mol
4 | SAGMKIEPTKDYVLITVNGPEKALETIKKLKELIPNPEILDIKPHPHPNGENPWTIIIPTKNIPPEVLFSAG [r5_857_TrMRF] | 0.655 ± 0.042 kcal/mol | 0.519 ± 0.14 kcal/mol | 0.68 ± 0.15 kcal/mol
5 | SAGMKIETIPEVDYVVIEIDAKSLEEAIETLKYLTEKLGLKKVIAVADPTSNKVIAIAEVGNPEALEKLSAG [r5_598_TrMRF] | 2.33 ± 0.07 kcal/mol | 1.56 ± 0.057 kcal/mol | 1.96 ± 0.1 kcal/mol
6 | SAGMKIEVKKKKDGKLEVEIEVKTKDGRTIRVKIYYDKKTKKFYIVEIEAESEEEKKKAEELLKKLLKSSAG [r5_266_TrROS_Hall] | 2.83 ± 0.14 kcal/mol | 3.62 ± 0.045 kcal/mol | 3.42 ± 0.12 kcal/mol
7 | SAGMKIKIKLENGEEIEIDKENPVIKIKNKETGEEVELVFDPENEDEIYIFNKKTKKLIAKFKITEIEPSAG [r5_761_TrROS_Hall] | 1.87 ± 0.092 kcal/mol | 3.21 ± 0.084 kcal/mol | 2.62 ± 0.34 kcal/mol
8 | SAGMKIKVLLVVKADPEELEKLEEILEKIKEESDIKKIEPLAYFPNTGIAVVLVEADPEAFEKILEAAGSAG [r5_193_TrMRF] | 1.78 ± 0.032 kcal/mol | 2.58 ± 0.03 kcal/mol | 2.29 ± 0.095 kcal/mol
9 | SAGMKIVVTLPDGWTATSDPSTGLITITDPKTGEPLLGKIPSSEPNKVTLYDPNNGKPLRELDIDEVEGSAG [r5_761_JUSTAS] | 0.287 ± 0.026 kcal/mol | 0.748 ± 0.023 kcal/mol | 0.581 ± 0.053 kcal/mol
10 | SAGMKKGDKFTVEFDLDPETRAEVEALLAAPGFAAEFDPSTGRLTLTLPSEIIDEVKKFPHIKKITKISAGG [r19_212_JUSTAS] | 1.05 ± 0.068 kcal/mol | 1.79 ± 0.044 kcal/mol | 1.68 ± 0.083 kcal/mol
11 | SAGMKKKLYSGEIKEIEEALEKGLSLEEIEEIFSKGANGSLELEEENKKIYIFALEDKKAFLLVEYNPESAG [r5_343_TrMRF] | 0.441 ± 0.14 kcal/mol | 1.46 ± 0.19 kcal/mol | 1.1 ± 0.26 kcal/mol
12 | SAGMKPGETITIENLPEGAIIYNKNGEKVEKVKEVKVTVEDGKITIEVKLEDGSTKTFTVPLEDLKIVPSAG [r5_850_TrROS_Hall] | 1.61 ± 0.12 kcal/mol | 3.05 ± 0.058 kcal/mol | 2.31 ± 0.14 kcal/mol
13 | SAGMKVIIGKNKIYVLVKLPNGEKKLFEIDIENIEKIKKIEIDIGKGYAKIGSKDNIPIYTKIKKVYNVSAG [r5_388_TrMRF] | 2.2 ± 0.058 kcal/mol | 2.82 ± 0.11 kcal/mol | 2.6 ± 0.14 kcal/mol
14 | SAGMKVIKVKGEEELEKALREEAEKKGLSEEEMKEFIEEAKKRTKIEKEGDEYYVTIEPEGKPVPGNKLSAG [r5_717_JUSTAS] | 1.04 ± 0.088 kcal/mol | -0.879 ± 0.52 kcal/mol | 0.474 ± 0.37 kcal/mol
15 | SAGMKVLKFKSKEELLEAIDKSPEPVLVINKKTGKKEVLSKEELKKKLKPGDEIEIVLLKDLSPEELKKSAG [r5_677_TrROS_Hall] | 1.05 ± 0.097 kcal/mol | 1.78 ± 0.14 kcal/mol | 1.4 ± 0.14 kcal/mol
16 | SAGMKYRIVIENENGEKIEFEKLEDGTIKMTIEKDGKKEEITIKVPPGMTIEELLKKFPNAKIVKIEKVSAG [r5_259_TrROS_Hall] | 2.78 ± 0.069 kcal/mol | 3.45 ± 0.065 kcal/mol | 3.23 ± 0.096 kcal/mol
17 | SAGMLGEEAIKDVKLELKEAPENEELVFEDTFPVGDKIARIRIVLKLPKNGGYEIKDIPIEVMAPEEAESAG [r5_96_TrMRF] | -0.469 ± 0.27 kcal/mol | -0.177 ± 0.42 kcal/mol | < -1 kcal/mol
18 | SAGMLPPEETVTLTLTFPASSPLSLEEILARTPDVEVLSLKREALPDDTVRLTITVRPDHVARVRAALASAG [r5_554_JUSTAS] | 3.37 ± 0.054 kcal/mol | 4.63 ± 0.06 kcal/mol | 4.32 ± 0.09 kcal/mol
19 | SAGMMKRIVVTARFPADEMTLDEFVELILAKLPGVKPVRVEILSVRPRPDGSYEVTVLLLVEAPPDVDASAG [r5_682_TrMRF] | 4.38 ± 0.071 kcal/mol | 4.216 ± 0.032 kcal/mol | 4.23 ± 0.048 kcal/mol
20 | SAGMMPLSHPEAREKAIEFAKKGYLVYVIEFENGESQVIVLESEEEIEELIKELPKPIKKIYVIPPLPESAG [r5_481_TrMRF] | 2.11 ± 0.054 kcal/mol | 3.054 ± 0.017 kcal/mol | 2.79 ± 0.089 kcal/mol
21 | SAGMMVVVELTVGFEPDEIEPEEIREAIEEHAAEVEIDPNPETDILPIRVIAEPGKIEAIVDALKEAGGSAG [r5_378_TrMRF] | 1.08 ± 0.069 kcal/mol | 0.0668 ± 0.19 kcal/mol | 0.671 ± 0.22 kcal/mol
22 | SAGMNKIYRLNEPVKNITFSSSELENLFKDPNIDRIAVFHPDKPAIIPFPDGKISGEFPPNITIVLFGSAGG [r19_152_TrMRF] | 0.661 ± 0.15 kcal/mol | -0.0733 ± 0.5 kcal/mol | 0.385 ± 0.2 kcal/mol
23 | SAGMNPNNPNVKTTTVTYTFPLPATESVEEAVERLKAEAEAAGKPIKTVEVTVERTPEDTVVIKATFVSSAG [r5_65_JUSTAS] | 1.34 ± 0.072 kcal/mol | 1.71 ± 0.057 kcal/mol | 1.59 ± 0.093 kcal/mol
24 | SAGMPEPRVFEIPNEGSESDLRDAVRELAEELRPSGREVRLVVEVGGRPREYRLEEVDRFPPDFRVVLGSAG [r5_626_TrMRF] | -0.362 ± 0.25 kcal/mol | 0.324 ± 0.16 kcal/mol | 0.125 ± 0.12 kcal/mol
25 | SAGMPGKVVTVTVPVPPELTRLTVTATAPDGSSSTFTLPPGVATTVTFTSPSSSDLSVTVTFPDGSTTGSAG [r5_664_JUSTAS] | 0.849 ± 0.017 kcal/mol | 1.16 ± 0.052 kcal/mol | 1.07 ± 0.05 kcal/mol
26 | SAGMPIKAKVLIFDPVNPVPKEFEFDVEDLDELVEKIREELGVEVVVDPESGVVVVDTPDGSLIVIEFDSAG [r5_937_TrMRF] | 3.08 ± 0.093 kcal/mol | 2.93 ± 0.077 kcal/mol | 3.01 ± 0.043 kcal/mol
